This note sets out measurements from the supplement of paper PMC11246515.

The series can be described thus: total protein half-life in vivo (active degradation + dilution); higher = more stable protein.
[1] abbreviates: E. coli NCM3722 delta-clpP delta-lon delta-hslV, growth: N-lim chemostat, doubling time 6 h.
Setting [2] is: E. coli NCM3722 delta-clpP, growth: N-lim chemostat, doubling time 6 h.
Where [3] appears, read: E. coli NCM3722 delta-lon, growth: N-lim chemostat, doubling time 6 h.
[4] abbreviates: E. coli NCM3722 delta-smpB, growth: N-lim chemostat, doubling time 6 h.
[5] abbreviates: wild type E. coli NCM3722, growth: C-lim chemostat, doubling time 12 h.
Setting [6] is: wild type E. coli NCM3722, growth: N-lim chemostat, doubling time 6 h.
[7] abbreviates: wild type E. coli NCM3722, growth: N-lim chemostat, doubling time 12 h.
Where [8] appears, read: wild type E. coli NCM3722, growth: P-lim chemostat, doubling time 12 h.
[9] abbreviates: E. coli NCM3722 delta-hslV, growth: N-lim chemostat, doubling time 6 h.
[10] abbreviates: wild type E. coli NCM3722, growth: C-lim chemostat, doubling time 3 h.
Where [11] appears, read: wild type E. coli NCM3722, growth: C-lim chemostat, doubling time 6 h.
Where [12] appears, read: wild type E. coli NCM3722, growth: P-lim chemostat, doubling time 6 h.

± gives the standard deviation of the averaged measurements.

With “MSTQLDPTQLAIEFLRRDQSNLSPAQYLKRLKQLELEFADLLTLSSAELKEEIYFAWRLGVH”, the “total protein half-life in vivo” value under setting [1] came to 5.63 ± 0.47 h; the “total protein half-life in vivo” value under setting [2] came out at 3.08 ± 0.39 h; the “total protein half-life in vivo” value under setting [3] was 2.3 h; the “total protein half-life in vivo” value under setting [4] worked out at 1.29 h; the “total protein half-life in vivo” value under setting [5] worked out at 1.9 h; the “total protein half-life in vivo” value under setting [6] was 0.632 h. Besides, the “total protein half-life in vivo” value is, setting by setting: under setting [7], 1.08 h; under setting [8], 0.514 h.
Consider “MELLCPAGNLPALKAAIENGADAVYIGLKDDTNARHFAGLNFTEKKLQEAVSFVHQHRRKLHIAINTFAHPDGYARWQRAVDMAAQLGADALILADLAMLEYAAERYPHIERHVSVQASATNEEAINFYHRHFDVARVVLPRVLSIHQVKQLARVTPVPLEVFAFGSLCIMSEGRCYLSSYLTGESPNTIGACSPARFVRWQQTPQGLESRLNEVLIDRYQDGENAGYPTLCKGRYLVDGERYHALEEPTSLNTLELLPELMAANIASVKIEGRQRSPAYVSQVAKVWRQAIDRCKADPQNFVPQSAWMETLGSMSEGTQTTLGAYHRKWQ”, for which, under setting [1], the “total protein half-life in vivo” value was determined as 4.53 h.
In the case of “MSFSCPLCHQPLSREKNSYICPQRHQFDMAKEGYVNLLPVQHKRSRDPGDSAEMMQARRAFLDAGHYQPLRDAIVAQLRERLDDKATAVLDIGCGEGYYTHAFADALPEITTFGLDVSKVAIKAAAKRYPQVTFCVASSHRLPFSDTSMDAIIRIYAPCKAEELARVVKPGGWVITATPGPRHLMELKGLIYNEVHLHAPHAEQLEGFTLQQSAELCYPMRLRGDEAVALLQMTPFAWRAKPEVWQTLAAKEVFDCQTDFNIHLWQRSY”, the “total protein half-life in vivo” value by setting is: under setting [1], 6.07 ± 0.81 h; under setting [2], 4.95 ± 0.29 h; under setting [9], 4.97 h; under setting [3], 4.9 ± 0.089 h; under setting [4], 4.28 ± 0.53 h; under setting [10], 2.57 h. The “total protein half-life in vivo” value by setting is: under setting [11], 5.6 h; under setting [5], 10.8 ± 0.77 h; under setting [6], 5.34 ± 0.44 h; under setting [7], 9.24 ± 0.73 h; under setting [12], 5.78 ± 0.22 h; under setting [8], 13.5 ± 2.7 h.
For “MGSQELQRKLGFWAVLAIAVGTTVGSGIFVSVGEVAKAAGTPWLTVLAFVIGGLIVIPQMCVYAELSTAYPENGADYVYLKNAGSRPLAFLSGWASFWANDAPSLSIMALAIVSNLGFLTPIDPLLGKFIAAGLIIAFMLLHLRSVEGGAAFQTLITIAKIIPFTIVIGLGIFWFKAENFAAPTTTAIGATGSFMALLAGISATSWSYTGMASICYMTGEIKNPGKTMPRALIGSCLLVLVLYTLLALVISGLMPFDKLANSETPISDALTWIPALGSTAGIFVAITAMIVILGSLSSCVMYQPRLEYAMAKDNLFFKCFGHVHPKYNTPDVSIILQGALGIFFIFVSDLTSLLGYFTLVMCFKNTLTFGSIIWCRKRDDYKPLWRTPAFGLMTTLAIASSLILVASTFVWAPIPGLICAVIVIATGLPAYAFWAKRSRQLNALS”, under setting [10], the “total protein half-life in vivo” value was found to be 3.26 h.
As to “MEIIMRNLCFLLTLVATLLLPGRLIAAALPQDEKLITGQLDNGLRYMIYPHAHPKDQVNLWLQIHTGSLQEEDNELGVAHFVEHMMFNGTKTWPGNKVIETFESMGLRFGRDVNAYTSYDETVYQVSLPTTQKQNLQQVMAIFSEWSNAATFEKLEVDAERGVITEEWRAHQDAKWRTSQARRPFLLANTRNLDREPIGLMDTVATVTPAQLRQFYQRWYQPNNMTFIVVGDIDSKEALALIKDNLSKLPANKAAENRVWPTKAENHLRFNIINDKENRVNGIALYYRLPMVQVNDEQSFIEQAEWSMLVQLFNQRLQERIQSGELKTISGGTARSVKIAPDYQSLFFRVNARDDNMQDAANALMAELATIDQHGFSAEELDDVKSTRLTWLKNAVDQQAERDLRMLTSRLASSSLNNTPFLSPEETYQLSKRLWQQITVQSLAEKWQQLRKNQDAFWEQMVNNEVAAKKALSPAAILALEKEYANKKLAAYVFPGRNLSLTVDADPQAEISSKETLAENLTSLTLSNGARVILAKSAGEEQKLQIIAVSNKGDLSFPAQQKSLIALANKAVSGSGVGELSSSSLKRWSAENSVTMSSKVSGMNTLLSVSARTNNPEPGFQLINQRITHSTINDNIWASLQNAQIQALKTLDQRPAEKFAQQMYETRYADDRTKLLQENQIAQFTAADALAADRQLFSSPADITFVIVGNVAEDKLVALITRYLGSIKHSDSPLAAGKPLTRATDNASVTVKEQNEPVAQVSQWKRYDSRTPVNLPTRMALDAFNVALAKDLRVNIREQASGAYSVSSRLSVDPQAKDISHLLAFTCQPERHDELLTLANEVMVKRLAKGISEQELNEYQQNVQRSLDIQQRSVQQLANTIVNSLIQYDDPAAWTEQEQLLKQMTVENVNTAVKQYLSHPVNTYTGVLLPK”, the “total protein half-life in vivo” value under setting [1] was determined as 4.62 ± 0.69 h; the “total protein half-life in vivo” value under setting [2] turned out to be 5.77 ± 0.74 h; the “total protein half-life in vivo” value under setting [9] is 4.77 ± 1.3 h; the “total protein half-life in vivo” value under setting [3] worked out at 5.5 h; the “total protein half-life in vivo” value under setting [4] stood at 4.55 ± 0.17 h; the “total protein half-life in vivo” value under setting [10] came out at 2.905 ± 0.0097 h. Besides, the “total protein half-life in vivo” value is, setting by setting: under setting [11], 5.9 ± 0.39 h; under setting [5], 10.2 ± 0.87 h; under setting [6], 5.41 ± 0.45 h; under setting [7], 9.96 ± 0.61 h; under setting [12], 4.84 ± 0.2 h; under setting [8], 9.3 ± 0.6 h.
In the case of “MKNWKTSAESILTTGPVVPVIVVKKLEHAVPMAKALVAGGVRVLEVTLRTECAVDAIRAIAKEVPEAIVGAGTVLNPQQLAEVTEAGAQFAISPGLTEPLLKAATEGTIPLIPGISTVSELMLGMDYGLKEFKFFPAEANGGVKALQAIAGPFSQVRFCPTGGISPANYRDYLALKSVLCIGGSWLVPADALEAGDYDRITKLAREAVEGAKL [P0A955]”, the “total protein half-life in vivo” value was 4.94 ± 0.33 h under setting [1]; 4.33 ± 0.52 h under setting [2]; 4.66 ± 0.37 h under setting [9]; 4.92 ± 0.53 h under setting [3]; 4.3 ± 0.16 h under setting [4]; 2.99 ± 0.52 h under setting [10]. Besides, the “total protein half-life in vivo” value was found to be 6.17 ± 0.77 h under setting [11]; 9.18 ± 0.99 h under setting [5]; 4.63 ± 0.16 h under setting [6]; 7.2 ± 0.82 h under setting [7]; 5.39 ± 0.082 h under setting [12]; 12.2 ± 0.37 h under setting [8].
